Measured values published in patent publication US20050282743A1, “Molecular interactions in cells” (Arbor Vita Corporation, priority 2001, published 2005).
Ends that are not written are not given here. Peptide text beside a SMILES is read from it. * marks the point of attachment. Biotin = O=C1N[C@H]2[C@H](CS[C@H]2CCCCC(=O)*)N1

Key:
Test in all cases: G' assay (10 uM PL peptide), results of TABLE 7 and TABLE 12
Assay type in all cases: binding
[1] = biological target: T1, PDZ protein (GST-PDZ fusion) (Homo sapiens, UniProt Q5TCQ9)
T1 construct: made in house; host or cells: E. coli (DH5alpha, BL21 or JM109)
T1 sequence (Q5TCQ9 1-1481): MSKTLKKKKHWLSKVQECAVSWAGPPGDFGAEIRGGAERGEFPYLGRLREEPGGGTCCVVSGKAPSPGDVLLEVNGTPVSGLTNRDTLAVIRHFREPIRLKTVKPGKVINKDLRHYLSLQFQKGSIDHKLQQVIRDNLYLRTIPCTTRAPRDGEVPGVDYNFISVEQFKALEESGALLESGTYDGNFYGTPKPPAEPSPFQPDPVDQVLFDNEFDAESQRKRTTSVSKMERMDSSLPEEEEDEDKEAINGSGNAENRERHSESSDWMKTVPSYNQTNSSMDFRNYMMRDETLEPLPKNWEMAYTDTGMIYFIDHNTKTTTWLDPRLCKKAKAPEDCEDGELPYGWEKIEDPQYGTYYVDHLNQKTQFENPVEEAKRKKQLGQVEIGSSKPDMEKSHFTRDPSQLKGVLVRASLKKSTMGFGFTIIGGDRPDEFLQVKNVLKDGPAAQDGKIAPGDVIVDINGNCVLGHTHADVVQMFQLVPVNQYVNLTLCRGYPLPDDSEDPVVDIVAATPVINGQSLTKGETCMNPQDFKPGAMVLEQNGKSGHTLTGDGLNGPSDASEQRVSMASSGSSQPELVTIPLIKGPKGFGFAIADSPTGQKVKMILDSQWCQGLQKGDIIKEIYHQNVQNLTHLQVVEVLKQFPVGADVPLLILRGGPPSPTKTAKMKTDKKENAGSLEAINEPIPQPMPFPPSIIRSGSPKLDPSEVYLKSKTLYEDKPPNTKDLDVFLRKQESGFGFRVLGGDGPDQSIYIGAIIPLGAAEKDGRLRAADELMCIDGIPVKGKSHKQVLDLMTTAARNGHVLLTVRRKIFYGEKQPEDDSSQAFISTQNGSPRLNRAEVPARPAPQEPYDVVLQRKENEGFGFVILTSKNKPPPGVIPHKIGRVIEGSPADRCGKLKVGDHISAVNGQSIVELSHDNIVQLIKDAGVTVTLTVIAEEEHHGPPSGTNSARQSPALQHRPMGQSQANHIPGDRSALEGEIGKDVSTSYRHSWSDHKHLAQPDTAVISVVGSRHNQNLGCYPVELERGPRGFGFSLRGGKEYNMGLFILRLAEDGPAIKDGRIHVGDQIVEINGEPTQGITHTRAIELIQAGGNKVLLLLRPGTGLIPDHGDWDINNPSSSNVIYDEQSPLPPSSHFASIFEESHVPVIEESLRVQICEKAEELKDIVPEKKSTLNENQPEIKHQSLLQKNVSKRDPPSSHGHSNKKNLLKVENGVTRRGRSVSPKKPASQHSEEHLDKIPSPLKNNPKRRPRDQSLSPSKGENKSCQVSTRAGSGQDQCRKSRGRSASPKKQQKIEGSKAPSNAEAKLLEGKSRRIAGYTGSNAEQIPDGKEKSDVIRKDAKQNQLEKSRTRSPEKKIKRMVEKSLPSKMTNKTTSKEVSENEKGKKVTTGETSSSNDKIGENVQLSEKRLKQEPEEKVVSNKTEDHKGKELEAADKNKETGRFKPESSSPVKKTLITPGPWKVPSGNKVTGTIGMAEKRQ
How it was run: (§1)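 Binding classes derive from A450 nm of bound biotin-tagged PL peptide. A score of 5 needs A450 above 4 in more than two repeats.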

[2] = biological target: T2, PDZ protein (GST-PDZ fusion) (Homo sapiens, UniProt P78352)
T2 construct: made in house; host or cells: E. coli (DH5alpha, BL21 or JM109)
T2 sequence (P78352 whole entry, the tested form may be a part): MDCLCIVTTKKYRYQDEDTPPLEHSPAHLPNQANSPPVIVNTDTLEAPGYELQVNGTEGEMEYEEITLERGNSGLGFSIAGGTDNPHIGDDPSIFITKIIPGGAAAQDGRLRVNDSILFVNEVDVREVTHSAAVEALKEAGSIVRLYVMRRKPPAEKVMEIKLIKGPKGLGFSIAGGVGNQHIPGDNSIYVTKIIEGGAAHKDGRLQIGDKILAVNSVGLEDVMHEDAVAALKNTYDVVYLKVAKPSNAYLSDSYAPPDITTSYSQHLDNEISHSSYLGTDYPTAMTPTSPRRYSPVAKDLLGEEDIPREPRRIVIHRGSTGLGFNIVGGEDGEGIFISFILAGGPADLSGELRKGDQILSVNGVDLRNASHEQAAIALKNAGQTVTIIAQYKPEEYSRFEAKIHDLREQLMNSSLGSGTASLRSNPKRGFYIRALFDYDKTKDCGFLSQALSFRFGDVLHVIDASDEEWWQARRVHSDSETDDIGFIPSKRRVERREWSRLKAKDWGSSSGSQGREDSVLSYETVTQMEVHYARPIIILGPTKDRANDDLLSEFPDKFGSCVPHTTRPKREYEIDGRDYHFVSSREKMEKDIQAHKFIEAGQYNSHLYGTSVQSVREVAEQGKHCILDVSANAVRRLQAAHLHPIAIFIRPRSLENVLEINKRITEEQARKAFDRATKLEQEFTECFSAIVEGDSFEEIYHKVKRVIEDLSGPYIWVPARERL
How it was run: as §1

[3] = biological target: T3, PDZ protein (GST-PDZ fusion) (Homo sapiens, UniProt Q8NI35); details: PDZ INADL
T3 construct: made in house; host or cells: E. coli (DH5alpha, BL21 or JM109)
T3 sequence (Q8NI35 whole entry, the tested form may be a part): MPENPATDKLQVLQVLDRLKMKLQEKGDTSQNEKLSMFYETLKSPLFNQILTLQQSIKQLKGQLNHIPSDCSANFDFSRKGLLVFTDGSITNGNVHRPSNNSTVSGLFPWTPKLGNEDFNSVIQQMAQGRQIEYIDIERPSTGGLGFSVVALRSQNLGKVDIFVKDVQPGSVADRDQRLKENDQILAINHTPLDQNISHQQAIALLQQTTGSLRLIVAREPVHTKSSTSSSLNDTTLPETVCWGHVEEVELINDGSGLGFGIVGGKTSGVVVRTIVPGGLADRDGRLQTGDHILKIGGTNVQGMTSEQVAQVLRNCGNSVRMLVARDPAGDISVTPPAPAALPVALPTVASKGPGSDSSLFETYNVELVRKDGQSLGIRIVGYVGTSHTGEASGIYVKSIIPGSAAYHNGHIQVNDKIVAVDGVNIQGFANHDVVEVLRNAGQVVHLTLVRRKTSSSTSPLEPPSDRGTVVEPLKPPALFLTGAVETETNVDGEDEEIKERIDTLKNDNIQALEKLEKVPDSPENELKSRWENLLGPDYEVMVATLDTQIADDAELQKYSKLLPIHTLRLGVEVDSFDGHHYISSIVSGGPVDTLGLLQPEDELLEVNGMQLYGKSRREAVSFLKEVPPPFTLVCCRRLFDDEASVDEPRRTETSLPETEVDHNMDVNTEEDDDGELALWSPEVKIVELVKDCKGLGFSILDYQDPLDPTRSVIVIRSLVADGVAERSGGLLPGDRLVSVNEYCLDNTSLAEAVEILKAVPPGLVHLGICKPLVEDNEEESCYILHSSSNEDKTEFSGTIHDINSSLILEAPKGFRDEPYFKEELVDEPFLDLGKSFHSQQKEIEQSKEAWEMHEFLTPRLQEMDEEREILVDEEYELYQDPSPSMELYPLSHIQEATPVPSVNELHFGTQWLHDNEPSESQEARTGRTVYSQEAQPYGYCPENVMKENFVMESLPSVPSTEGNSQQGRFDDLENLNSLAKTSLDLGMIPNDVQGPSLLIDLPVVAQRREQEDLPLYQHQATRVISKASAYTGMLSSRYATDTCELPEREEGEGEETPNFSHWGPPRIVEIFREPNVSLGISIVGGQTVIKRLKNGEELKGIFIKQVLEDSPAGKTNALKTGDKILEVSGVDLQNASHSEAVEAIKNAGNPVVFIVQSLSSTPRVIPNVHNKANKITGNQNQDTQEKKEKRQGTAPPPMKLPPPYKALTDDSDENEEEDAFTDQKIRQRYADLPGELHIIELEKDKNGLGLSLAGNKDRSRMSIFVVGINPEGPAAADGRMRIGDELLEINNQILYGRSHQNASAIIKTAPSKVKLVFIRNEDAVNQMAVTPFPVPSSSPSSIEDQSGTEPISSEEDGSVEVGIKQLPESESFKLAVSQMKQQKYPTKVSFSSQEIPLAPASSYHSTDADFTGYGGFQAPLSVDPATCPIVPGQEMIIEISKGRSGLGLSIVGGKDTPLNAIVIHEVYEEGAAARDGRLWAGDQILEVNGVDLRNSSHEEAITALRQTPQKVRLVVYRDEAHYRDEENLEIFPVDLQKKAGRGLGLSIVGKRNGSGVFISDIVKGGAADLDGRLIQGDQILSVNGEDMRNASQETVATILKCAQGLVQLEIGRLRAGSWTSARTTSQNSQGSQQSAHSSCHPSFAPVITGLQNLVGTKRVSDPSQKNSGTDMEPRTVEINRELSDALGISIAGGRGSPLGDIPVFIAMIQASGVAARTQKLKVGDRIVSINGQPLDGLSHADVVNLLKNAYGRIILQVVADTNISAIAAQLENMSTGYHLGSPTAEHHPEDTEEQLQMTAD
How it was run: as §1

[4] = biological target: T4, PDZ protein (GST-PDZ fusion) (Homo sapiens, UniProt O75970)
T4 construct: made in house; host or cells: E. coli (DH5alpha, BL21 or JM109)
How it was run: as §1

[5] = biological target: T5, PDZ protein (GST-PDZ fusion) (Homo sapiens, UniProt Q6P0Q8)
T5 construct: made in house; host or cells: E. coli (DH5alpha, BL21 or JM109)
How it was run: as §1

[6] = biological target: T6, PDZ protein (GST-PDZ fusion) (Homo sapiens, UniProt Q12923)
T6 construct: made in house; host or cells: E. coli (DH5alpha, BL21 or JM109)
T6 sequence (Q12923 whole entry, the tested form may be a part): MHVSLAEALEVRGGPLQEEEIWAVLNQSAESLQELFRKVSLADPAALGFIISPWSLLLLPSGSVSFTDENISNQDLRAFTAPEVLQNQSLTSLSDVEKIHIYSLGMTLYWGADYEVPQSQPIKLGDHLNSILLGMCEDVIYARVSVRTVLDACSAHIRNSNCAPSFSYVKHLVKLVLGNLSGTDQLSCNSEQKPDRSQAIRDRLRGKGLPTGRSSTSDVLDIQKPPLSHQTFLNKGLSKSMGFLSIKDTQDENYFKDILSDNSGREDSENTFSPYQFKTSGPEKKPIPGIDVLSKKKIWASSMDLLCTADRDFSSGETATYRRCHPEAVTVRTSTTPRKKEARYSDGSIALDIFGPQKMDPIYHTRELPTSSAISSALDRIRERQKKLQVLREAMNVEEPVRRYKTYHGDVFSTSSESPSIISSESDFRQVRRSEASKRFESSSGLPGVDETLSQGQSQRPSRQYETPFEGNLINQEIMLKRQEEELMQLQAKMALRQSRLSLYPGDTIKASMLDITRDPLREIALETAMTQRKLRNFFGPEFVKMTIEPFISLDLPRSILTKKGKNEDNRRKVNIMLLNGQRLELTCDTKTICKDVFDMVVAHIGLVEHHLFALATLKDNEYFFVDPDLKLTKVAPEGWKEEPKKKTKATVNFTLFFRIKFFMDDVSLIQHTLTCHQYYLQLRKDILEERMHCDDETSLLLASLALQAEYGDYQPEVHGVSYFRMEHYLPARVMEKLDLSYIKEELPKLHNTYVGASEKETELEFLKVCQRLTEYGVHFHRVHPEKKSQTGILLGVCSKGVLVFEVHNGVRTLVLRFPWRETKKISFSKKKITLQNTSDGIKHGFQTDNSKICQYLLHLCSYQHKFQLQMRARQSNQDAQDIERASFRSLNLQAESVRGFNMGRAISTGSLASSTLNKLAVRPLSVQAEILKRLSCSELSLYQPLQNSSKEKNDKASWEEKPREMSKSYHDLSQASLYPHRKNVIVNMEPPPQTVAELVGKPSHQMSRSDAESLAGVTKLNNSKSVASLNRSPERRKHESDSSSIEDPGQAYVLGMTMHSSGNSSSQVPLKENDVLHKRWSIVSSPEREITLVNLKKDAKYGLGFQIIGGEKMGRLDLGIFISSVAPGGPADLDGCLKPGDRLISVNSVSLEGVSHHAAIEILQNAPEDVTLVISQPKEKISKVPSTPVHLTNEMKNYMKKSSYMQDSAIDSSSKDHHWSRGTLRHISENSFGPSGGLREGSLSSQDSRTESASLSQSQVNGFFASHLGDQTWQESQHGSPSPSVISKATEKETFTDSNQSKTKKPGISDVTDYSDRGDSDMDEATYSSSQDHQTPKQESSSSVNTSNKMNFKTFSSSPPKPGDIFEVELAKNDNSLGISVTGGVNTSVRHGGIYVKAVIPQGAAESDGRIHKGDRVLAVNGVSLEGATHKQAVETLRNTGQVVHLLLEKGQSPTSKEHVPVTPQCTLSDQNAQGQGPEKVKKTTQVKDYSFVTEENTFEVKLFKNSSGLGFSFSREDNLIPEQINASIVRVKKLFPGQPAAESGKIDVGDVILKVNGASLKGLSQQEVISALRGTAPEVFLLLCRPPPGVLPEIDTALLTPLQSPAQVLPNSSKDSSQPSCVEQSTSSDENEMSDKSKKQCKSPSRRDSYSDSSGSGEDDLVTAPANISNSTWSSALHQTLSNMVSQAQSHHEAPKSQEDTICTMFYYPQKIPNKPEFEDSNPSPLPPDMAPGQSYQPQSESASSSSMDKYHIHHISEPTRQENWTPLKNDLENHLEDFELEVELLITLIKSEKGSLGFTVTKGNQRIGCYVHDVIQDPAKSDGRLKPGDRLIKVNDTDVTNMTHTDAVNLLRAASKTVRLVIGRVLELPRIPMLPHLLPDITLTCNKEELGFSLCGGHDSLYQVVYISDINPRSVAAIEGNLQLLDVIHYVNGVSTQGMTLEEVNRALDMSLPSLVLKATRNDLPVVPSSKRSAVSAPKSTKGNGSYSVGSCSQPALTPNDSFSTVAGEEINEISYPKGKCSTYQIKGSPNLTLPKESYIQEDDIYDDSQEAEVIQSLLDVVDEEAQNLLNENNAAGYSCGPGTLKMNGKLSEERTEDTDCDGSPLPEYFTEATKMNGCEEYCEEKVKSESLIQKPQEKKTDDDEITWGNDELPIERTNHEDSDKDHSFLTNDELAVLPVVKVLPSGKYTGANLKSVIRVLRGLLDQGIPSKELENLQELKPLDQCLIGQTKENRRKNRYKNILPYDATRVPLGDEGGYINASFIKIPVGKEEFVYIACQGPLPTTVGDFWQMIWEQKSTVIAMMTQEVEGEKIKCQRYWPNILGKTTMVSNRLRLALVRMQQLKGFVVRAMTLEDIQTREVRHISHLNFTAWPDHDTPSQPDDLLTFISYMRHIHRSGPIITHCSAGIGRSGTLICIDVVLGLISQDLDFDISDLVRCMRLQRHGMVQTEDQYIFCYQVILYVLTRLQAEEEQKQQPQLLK
How it was run: as §1

[7] = PDZ KIAA807, PDZ Domain not given

| Classification ([1]; PDZ KIAA1634, PDZ Domain 1) | Classification ([1]; PDZ KIAA1634, PDZ Domain 2) | Classification ([3]; PDZ Domain 8) | Classification ([6]; PDZ PTPL-1, PDZ Domain 2) | Classification ([2]; PDZ PSD95, PDZ Domain 1, 2, 3) | Classification ([6]; PDZ PTPL-1, PDZ Domain 4) | Molecule | also measured |
| --- | --- | --- | --- | --- | --- | --- | --- |
| 4 (A450 nm 3-4) | 2 (A450 nm 1-2) | 1 (A450 nm 0-1) | 1 (A450 nm 0-1) | 2 (A450 nm 1-2) | 1 (A450 nm 0-1) | CC(C)C[C@H](NC(=O)CNC(=O)[C@@H](NC(=O)[C@H](CO)NC(=O)[C@H](CC(N)=O)NC(=O)[C@H](Cc1ccccc1)NC(=O)CNC(=O)[C@H](C)NC(=O)[C@H](C)NC(=O)[C@H](Cc1ccccc1)NC(=O)[C@@H](NC(=O)CCCC[C@@H]1SC[C@@H]2NC(=O)N[C@@H]21)[C@@H](C)O)[C@@H](C)O)C(=O)N1CCC[C@H]1C(=O)N[C@@H](Cc1c[nH]cn1)C(=O)N[C@@H](CO)C(=O)N[C@H](C(=O)N[C@H](C(=O)N[C@@H](CCCNC(=N)N)C(=O)N[C@H](C(=O)O)C(C)C)[C@@H](C)O)[C@@H](C)O [Neuroligin] (Biotin-TFAAGFNSTGLPHSTTRV-OH; C-terminus assumed) | Classification ([5]; PDZ KIAA807): 3 (A450 nm 2-3) |
| – | 3 (A450 nm 2-3) | – | 4 (A450 nm 3-4) | 1 (A450 nm 0-1) | – | CC[C@H](C)[C@H](NC(=O)[C@H](Cc1c[nH]cn1)NC(=O)[C@H](C)NC(=O)[C@H](C)NC(=O)[C@H](CO)NC(=O)[C@@H]1CCCN1C(=O)[C@H](CCCNC(=N)N)NC(=O)[C@H](CC(=O)O)NC(=O)[C@H](CCCCN)NC(=O)[C@@H]1CCCN1C(=O)[C@H](CC(=O)O)NC(=O)[C@H](CCC(=O)O)NC(=O)CCCC[C@@H]1SC[C@@H]2NC(=O)N[C@@H]21)C(=O)N[C@H](C(=O)N[C@@H](CCC(=O)O)C(=O)N[C@@H](C)C(=O)N[C@@H](CC(C)C)C(=O)N[C@@H](CCC(=O)O)C(=O)N[C@H](C(=O)N[C@@H](CC(=O)O)C(=O)N[C@H](C(=O)O)C(C)C)[C@@H](C)O)C(C)C [PDZ-binding kinase (PBK)] (Biotin-EDPKDRPSAAHIVEALETDV-OH; C-terminus assumed) | – |

More lines, now with the values behind:

| Molecule | Classification ([1]; PDZ KIAA1634, PDZ Domain 1) | Classification ([1]; PDZ KIAA1634, PDZ Domain 2) | Classification ([3]; PDZ Domain 8) | Classification ([6]; PDZ PTPL-1, PDZ Domain 2) | Classification ([2]; PDZ PSD95, PDZ Domain 1, 2, 3) | Classification ([6]; PDZ PTPL-1, PDZ Domain 4) | also measured |
| --- | --- | --- | --- | --- | --- | --- | --- |
| ISGTPTSTMVHGMTSSSSVV (Biotin-ISGTPTSTMVHGMTSSSSVV) [Clasp-2] | 1 (A450 nm 0-1) | 1 (A450 nm 0-1) | 1 (A450 nm 0-1) | 1 (A450 nm 0-1) | – | – | Classification ([2]; PDZ PSD95, PDZ Domain 1): 1 (A450 nm 0-1); Classification ([4]; PDZ MUPP-1, PDZ Domain 10): 1 (A450 nm 0-1); Classification ([4]; PDZ MUPP-1, PDZ Domain 13): 1 (A450 nm 0-1); Classification [5, 7]: 1 (A450 nm 0-1) |
| RNIEEVYVGGKQVVPFSSSV (Biotin-RNIEEVYVGGKQVVPFSSSV) [Nedasin (s-form)] | 1 (A450 nm 0-1) | – | 1 (A450 nm 0-1) | – | 3 (A450 nm 2-3) | – | Classification ([5]; PDZ KIAA807 (domain not given)): 2 (A450 nm 1-2) |
| SLKPGTVLPPPPYRHRNTVV (Biotin-SLKPGTVLPPPPYRHRNTVV) [ErbB-4 receptor] | – | 1 (A450 nm 0-1) | – | 2 (A450 nm 1-2) | 1 (A450 nm 0-1) | – | – |
| ELLQFCRTPNPALKNGQYWV (Biotin-ELLQFCRTPNPALKNGQYWV) | 5 (A450 nm of 4 more than 2× repeated) | – | 3 (A450 nm 2-3) | – | – | 5 (A450 nm of 4 more than 2× repeated) | Classification ([1]; PDZ KIAA1634, PDZ Domain 5): 2 (A450 nm 1-2); Classification ([3]; PDZ Domain 3): 3 (A450 nm 2-3); Classification ([3]; PDZ Domain 5): 5 (A450 nm of 4 more than 2× repeated); Classification ([4]; PDZ MUPP-1, PDZ Domain 1): 2 (A450 nm 1-2); Classification ([4]; PDZ MUPP-1, PDZ Domain 2): 5 (A450 nm of 4 more than 2× repeated); Classification ([4]; PDZ MUPP-1, PDZ Domain 5): 5 (A450 nm of 4 more than 2× repeated); Classification ([4]; PDZ MUPP-1, PDZ Domain 8): 2 (A450 nm 1-2); Classification ([4]; PDZ MUPP-1, PDZ Domain 10): 4 (A450 nm 3-4); Classification ([4]; PDZ MUPP-1, PDZ Domain 11): 5 (A450 nm of 4 more than 2× repeated); Classification ([4]; PDZ MUPP-1, PDZ Domain 12): 1 (A450 nm 0-1); Classification ([5]; PDZ KIAA807): 1 (A450 nm 0-1); Classification ([5]; PDZ KIAA0807(S), PDZ Domain 1): 1 (A450 nm 0-1) |
| CC[C@H](C)[C@H](NC(=O)[C@H](CCC(N)=O)NC(=O)[C@@H](NC(=O)[C@H](Cc1c[nH]cn1)NC(=O)[C@H](CCC(N)=O)NC(=O)[C@H](CC(=O)O)NC(=O)[C@H](CCC(=O)O)NC(=O)[C@H](CC(=O)O)NC(=O)[C@H](Cc1ccccc1)NC(=O)[C@@H]1CCCN1C(=O)[C@H](CCC(=O)O)NC(=O)[C@H](CC(N)=O)NC(=O)[C@H](CCC(=O)O)NC(=O)[C@@H]1CCCN1C(=O)[C@H](CC(=O)O)NC(=O)[C@H](CO)NC(=O)[C@H](CC(=O)O)NC(=O)CCCC[C@@H]1SC[C@@H]2NC(=O)N[C@@H]21)[C@@H](C)O)C(=O)N[C@H](C(=O)N[C@@H](CCCCN)C(=O)N[C@H](C(=O)O)C(C)C)[C@@H](C)O [PTEN] | – | 5 (A450 nm of 4 more than 2× repeated) | 1 (A450 nm 0-1) | 4 (A450 nm 3-4) | – | 1 (A450 nm 0-1) | Classification ([4]; PDZ MUPP-1, PDZ Domain 13): 5 (A450 nm of 4 more than 2× repeated); Classification ([5]; PDZ KIAA0807(S), PDZ Domain 1): 5 (A450 nm of 4 more than 2× repeated); Classification [5, 7]: 5 (A450 nm of 4 more than 2× repeated) |
| CC[C@H](C)[C@H](NC(=O)[C@H](CCC(=O)O)NC(=O)[C@H](CO)NC(=O)[C@H](CCC(=O)O)NC(=O)[C@H](CCCNC(=N)N)NC(=O)[C@H](CCCNC(=N)N)NC(=O)[C@H](CC(C)C)NC(=O)[C@@H]1CCCN1C(=O)[C@H](CCCNC(=N)N)NC(=O)[C@@H]1CCCN1C(=O)[C@H](CCC(=O)O)NC(=O)[C@H](CC(C)C)NC(=O)[C@@H]1CCCN1C(=O)[C@@H](NC(=O)[C@H](CO)NC(=O)[C@H](C)NC(=O)[C@H](CCC(N)=O)NC(=O)[C@H](CC(N)=O)NC(=O)[C@H](Cc1c[nH]cn1)NC(=O)[C@H](CC(C)C)NC(=O)CCCC[C@@H]1SC[C@@H]2NC(=O)N[C@@H]21)C(C)C)C(=O)O [Kir2.1 (inwardly rect. K+ channel)] (Biotin-LHNQASVPLEPRPLRRESEI-OH; C-terminus assumed) | 1 (A450 nm 0-1) | – | – | – | 2 (A450 nm 1-2) | – | – |
